# Results: patent US20230157952A1, “METHOD FOR IMPROVING THE STABILITY OF A PHARMACEUTICAL COMPOSITION COMPRISING A HIGH PENETRATION DRUG, AND THE PHARMACEUTICAL COMPOSITION OBTAINED THEREFROM” (Techfields Inc., priority 2020, published 2023)
# Non-standard residues stand in square brackets, D forms with d. *: point of attachment. Arg(NO2) = N=C(NCCC[C@H](N)C(=O)O)N[N+](=O)[O-]; OiPr = CC(C)O*
# Assays:
# [1] = Effect of pH value on the stability of the solution (purity); format: physicochemical; settings: for Purity(%) at day 1 / Purity(%) at day 30 / Purity(%) at day 90 / Purity(%) at day 180 / Purity(%) at day 360: 5% solution
# [2] = Effect of concentration on the stability of the solution (purity over time); settings: 1 equivalent sodium acetate in 50% ethanol at 25° C.
# [3] = 25% ethanol (after multiple recrystalization), pH 3.7, 25° C.
# [4] = 25% ethanol with 0.5 equivalent sodium acetate, pH 3.7, 25° C.
# [5] = 25% ethanol with 1 equivalent sodium acetate, pH 4.6, 25° C.
# [6] = 25% ethanol with 1.5 equivalent sodium acetate, pH 5.6, 25° C.
# [7] = 25% ethanol with HCl, pH 1.0, 25° C.
# [8] = 25% ethanol with HCl, pH 2.0, 25° C.
# [9] = 25% ethanol with NaOH, pH 7, 25° C.
# [10] = 25% ethanol with NaOH, pH 8, 25° C.
substance,measurement,setting,value
H-Ala-Pro-Gly-Pro-Arg(NO2)—OCH2CH3•HCl (H-APGP[Arg(NO2)]-OEt; also: HCl salt),pH at which the solution is stable,[1]; 5% solution in 25% ethanol at 25° C.,3-6
same,Time the solution can be stored at room temperature,"[1]; 5% solution in 25% ethanol, pH 3-6",about 3 months
same,Purity at Day 30,[2]; 0.01 wt %,55.6%
same,Purity at Day 90,[2]; 0.01 wt %,21.3%
same,Purity at Day 180,[2]; 0.01 wt %,0%
same,Purity at day 0,[2]; 0.01 wt %,98.3%
same,Purity at Day 30,[2]; 0.1 wt %,65.7%
same,Purity at Day 90,[2]; 0.1 wt %,30.2%
same,Purity at Day 180,[2]; 0.1 wt %,8.6%
same,Purity at day 0,[2]; 0.1 wt %,98.4%
same,Purity at Day 30,[2]; 1 wt %,91.3%
same,Purity at Day 90,[2]; 1 wt %,75.9%
same,Purity at Day 180,[2]; 1 wt %,56.6%
same,Purity at day 0,[2]; 1 wt %,98.5%
same,Purity at Day 30,[2]; 3 wt %,96.8%
same,Purity at Day 90,[2]; 3 wt %,92.1%
same,Purity at Day 180,[2]; 3 wt %,85.8%
same,Purity at day 0,[2]; 3 wt %,98.8%
same,Purity at Day 30,[2]; 5 wt %,97.1%
same,Purity at Day 90,[2]; 5 wt %,94.4%
same,Purity at Day 180,[2]; 5 wt %,89.7%
same,Purity at day 0,[2]; 5 wt %,98.9%
same,Purity at Day 30,[2]; 7 wt %,97.5%
same,Purity at Day 90,[2]; 7 wt %,95.0%
same,Purity at Day 180,[2]; 7 wt %,91.3%
same,Purity at day 0,[2]; 7 wt %,98.9%
same,Purity at Day 30,[2]; 8 wt %,97.6%
same,Purity at Day 90,[2]; 8 wt %,95.1%
same,Purity at Day 180,[2]; 8 wt %,91.4%
same,Purity at day 0,[2]; 8 wt %,98.8%
same,Purity at Day 30,[2]; 10 wt %,97.6%
same,Purity at Day 90,[2]; 10 wt %,95.2%
same,Purity at Day 180,[2]; 10 wt %,91.5%
same,Purity at day 0,[2]; 10 wt %,98.9%
same,Purity at Day 30,[2]; 15 wt %,97.6%
same,Purity at Day 90,[2]; 15 wt %,95.0%
same,Purity at Day 180,[2]; 15 wt %,91.4%
same,Purity at day 0,[2]; 15 wt %,98.8%
same,Purity at Day 30,[2]; 20 wt %,97.5%
same,Purity at Day 90,[2]; 20 wt %,95.1%
same,Purity at Day 180,[2]; 20 wt %,91.5%
same,Purity at day 0,[2]; 20 wt %,98.9%
same,Purity at Day 30,[2]; 30 wt %,97.6%
same,Purity at Day 90,[2]; 30 wt %,95.1%
same,Purity at Day 180,[2]; 30 wt %,91.7%
same,Purity at day 0,[2]; 30 wt %,98.9%
same,Purity at Day 30,[2]; 50 wt %,97.5%
same,Purity at Day 90,[2]; 50 wt %,95.2%
same,Purity at Day 180,[2]; 50 wt %,91.6%
same,Purity at day 0,[2]; 50 wt %,98.8%
H-Val-Pro-Gly-Pro-Arg(NO2)—OCH(CH3)2•HCl salt (H-VPGP[Arg(NO2)]-OiPr; also: HCl salt),Purity(%) at day 1,[1]; [3],98.6 ± 0.2%
same,Purity(%) at day 30,[1]; [3],98.1 ± 0.2%
same,Purity(%) at day 90,[1]; [3],97.2 ± 0.1%
same,Purity(%) at day 180,[1]; [3],95.4 ± 0.1%
same,Purity(%) at day 360,[1]; [3],92.1 ± 0.2%
same,Purity(%) at day 1,[1]; [4],98.6 ± 0.2%
same,Purity(%) at day 30,[1]; [4],98.2 ± 0.1%
same,Purity(%) at day 90,[1]; [4],97.1 ± 0.2%
same,Purity(%) at day 180,[1]; [4],95.6 ± 0.2%
same,Purity(%) at day 360,[1]; [4],92.0 ± 0.2%
same,Purity(%) at day 1,[1]; [5],98.6 ± 0.2%
same,Purity(%) at day 30,[1]; [5],98.2 ± 0.2%
same,Purity(%) at day 90,[1]; [5],97.0 ± 0.1%
same,Purity(%) at day 180,[1]; [5],95.6 ± 0.2%
same,Purity(%) at day 360,[1]; [5],92.1 ± 0.2%
same,Purity(%) at day 1,[1]; [6],98.5 ± 0.2%
same,Purity(%) at day 30,[1]; [6],97.0 ± 0.2%
same,Purity(%) at day 90,[1]; [6],93.8 ± 0.1%
same,Purity(%) at day 180,[1]; [6],88.1 ± 0.2%
same,Purity(%) at day 360,[1]; [6],80.1 ± 0.3%
same,Purity(%) at day 1,[1]; [7],98.3 ± 0.2%
same,Purity(%) at day 30,[1]; [7],85.0 ± 0.2%
same,Purity(%) at day 90,[1]; [7],59.5 ± 0.2%
same,Purity(%) at day 180,[1]; [7],43.5 ± 0.3%
same,Purity(%) at day 360,[1]; [7],17.6 ± 0.3%
same,Purity(%) at day 1,[1]; [8],98.4 ± 0.2%
same,Purity(%) at day 30,[1]; [8],91.7 ± 0.2%
same,Purity(%) at day 90,[1]; [8],84.7 ± 0.3%
same,Purity(%) at day 180,[1]; [8],71.7 ± 0.3%
same,Purity(%) at day 360,[1]; [8],52.7 ± 0.3%
same,Purity(%) at day 1,[1]; [9],98.3 ± 0.3%
same,Purity(%) at day 30,[1]; [9],78.1 ± 0.4%
same,Purity(%) at day 90,[1]; [9],44.1 ± 0.4%
same,Purity(%) at day 180,[1]; [9],25.1 ± 0.4%
same,Purity(%) at day 360,[1]; [9],0%
same,Purity(%) at day 1,[1]; [10],98.0 ± 0.3%
same,Purity(%) at day 30,[1]; [10],56.3 ± 0.3%
same,Purity(%) at day 90,[1]; [10],32.3 ± 0.4%
same,Purity(%) at day 180,[1]; [10],3.9 ± 0.4%
same,Purity(%) at day 360,[1]; [10],0%
same,Purity(%) at day 1,"[1]; 25% ethanol, pH 3.0, 25° C.",98.5 ± 0.1%
same,Purity(%) at day 30,"[1]; 25% ethanol, pH 3.0, 25° C.",97.4 ± 0.2%
same,Purity(%) at day 90,"[1]; 25% ethanol, pH 3.0, 25° C.",94.7 ± 0.1%
same,Purity(%) at day 180,"[1]; 25% ethanol, pH 3.0, 25° C.",90.7 ± 0.2%
same,Purity(%) at day 360,"[1]; 25% ethanol, pH 3.0, 25° C.",82.7 ± 0.3%
